Measurements published in paper PMC10213502, “ICA69 regulates activity-dependent synaptic strengthening and learning and memory” (Frontiers in Molecular Neuroscience, 2023).

Target: T1, GFP-tagged PICK1 (UniProt Q9EP80 1-416)
T1 construct: construct as previously described (Cao et al., 2007); also called GFP-PICK1; source: HEK293T, transfected, in lysate
Experiment: co-IP; HEK cells co-transfected with the GFP-tagged bait and both myc-tagged proteins; IP with GFP antibody (normal rabbit serum as control), myc blot; IP signals normalised to input; lysis buffer 1% NP-40, 200 mM NaCl, 20 mM HEPES pH 7.4; 4°C
Conditions: partners not purified

T1 sequence (Q9EP80 whole entry): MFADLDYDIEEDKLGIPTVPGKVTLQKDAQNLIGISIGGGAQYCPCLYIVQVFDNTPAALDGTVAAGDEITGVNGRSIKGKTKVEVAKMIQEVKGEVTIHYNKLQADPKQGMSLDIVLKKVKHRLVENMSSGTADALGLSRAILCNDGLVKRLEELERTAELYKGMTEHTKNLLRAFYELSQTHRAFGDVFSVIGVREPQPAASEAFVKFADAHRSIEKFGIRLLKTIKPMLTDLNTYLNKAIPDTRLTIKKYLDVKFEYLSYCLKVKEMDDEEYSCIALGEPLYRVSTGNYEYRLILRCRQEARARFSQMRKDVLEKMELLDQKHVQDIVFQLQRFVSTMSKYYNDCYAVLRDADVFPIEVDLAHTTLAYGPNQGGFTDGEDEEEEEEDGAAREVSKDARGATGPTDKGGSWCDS

B1: myc-tagged ICA69 (full-length) (natural protein, UniProt Q63054 1-480, looked up)
chain: MSGHKCYSWELQDRFAQDKSVVNKMQQKYWETKQAFIKATGKKEDEHVVASDADLDAKLELFHSIQRTCLDLSKAIVLYQKRICFLSQEENELGKFLRSQGFQDKTRAGKMMQATGKALCFSSQQRLALRNPLCRFHQEVETFRHRAISDTWLTVNRMEQCRTEYRGALLWMKDVSQELDPDLYKQMEKFRKVQTQVRLAKKNFDKLKMDVCQKVDLLGASRCNLLSHMLATYQTTLLHFWEKTSHTMAAIHESFKGYQPYEFTTLKSLQDPMKKLVEKEKKKSSRRENREAVAQEPRQLISLEEENQHKESSTCQKEEGKSVPSSVDKSSADDACSGPIDELLDVKPEEACLGPMAGTPEPESGDKDDLLLLNEIFSTSSLDEGEFSREWAAVFGDDRLKEPAPMGAQGEPDPKPQIGSAFLPSQLLDQNMKDLQASLQEPAKAASDLTAWFSLFADLDPLSNPDAIGKTDKEHELLNA
notes: ICA69 (islet cell autoantigen of 69 kDa), myc-tagged full-length made by overlap extension PCR; The same protein as m1, with another tag; also called myc-ICA69; source: HEK293T, transfected, in lysate
For B1, which “heteromer/homomer ratio (myc-ICA69 over myc-PICK1 in the IP of GFP-PICK1)” value is on record?
The value was 19 ratio.
